Target: T1, AcFur (Acidithiobacillus caldus MTH-04) (UniProt A0A060A2G1)
T1 sequence: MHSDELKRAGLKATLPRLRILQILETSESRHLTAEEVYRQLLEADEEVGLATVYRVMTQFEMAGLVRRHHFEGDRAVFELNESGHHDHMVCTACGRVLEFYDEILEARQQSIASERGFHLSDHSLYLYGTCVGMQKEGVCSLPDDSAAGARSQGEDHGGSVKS
Experiment: EMSA
Conditions: EMSA: 0.4 nM DNA, 0/2/4/8 nM protein, 10 mM Tris-HCl pH 8.0, 100 mM NaCl, 1 mM MnCl2, room temperature, 30 min; 5% native PAGE in 0.5x TBE, EB stain

Row | Sequence | binding
1 | GCGTAGGACGTCCTTGATAACTGCAACTAAGTTGCATATATTCCGCACGACCACTCCGCGCGTCCCTGGGGAGCTTGACCGGTAAGTCTATTTATTGAATGATAATGATTAGCATTTATATTATTTGGAGAGATTGTCCATGCGTCGTATACCCCTCTGTGCGCTGCTGAGCACCATGCTTGCTTCCAGC (double strand) [feoP promoter] | binds
2 | TTCCACCTGCTCACCTGCGCGGGCCGAGCTCAGGCGGTGGGGGGAAAGGACTTGGGTCATGACGCTCACACTCCCAACGAGTTCGTGGGGACACTATATCATAATGGTAATCATTTGCAATATCAGCCCAAGGGAGGGCCGTCCCGGCGGACGCAGCCGCCGACGCTCAGTCCAGGTCGCCGTGCCTGGGTGTAAAACGC (double strand) [feoABC operator (feoA promoter)] | binds
